Data as given in US20210388087A1 (Chugai, published 2021).
Substitutions are numbered along the chain they refer to.

B1: CE115HA000 S62E (antibody, human IgG1, kappa, L234A L235A, N297A, name in Kabat numbering)
heavy: QVQLVESGGGVVQPGRSLRLSCAASGFTFSNAWMHWVRQAPGKGLEWVAQIKAKSNNYATYYAEEVKGRFTISRDDSKNSLYLQMNSLKTEDTAVYYCRYVHYGAYYGVDAWGQGTTVTVSSASTKGPSVFPLAPSSKSTSGGTAALGCLVKDYFPEPVTVSWNSGALTSGVHTFPAVLQSSGLYSLSSVVTVPSSSLGTQTYICNVNHKPSNTKVDKKVEPKSCDKTHTCPPCPAPEAAGGPSVFLFPPKPKDTLMISRTPEVTCVVVDVSHEDPEVKFNWYVDGVEVHNAKTKPREEQYASTYRVVSVLTVLHQDWLNGKEYKCKVSNKALPAPIEKTISKAKGQPREPQVYTLPPSRCELTKNQVSLSCAVKGFYPSDIAVEWESNGQPENNYKTTPPVLDSDGSFFLVSKLTVDKSRWQQGNVFSCSVMHEALHNHYTQKSLSLSPDYKDDDDK
chain: EPKSSDKTHTCPPCPAPELLGGPSVFLFPPKPKDTLMISRTPEVTCVVVDVSHEDPEVKFNWYVDGVEVHNAKTKPREEQYNSTYRVVSVLTVLHQDWLNGKEYKCKVSNKALPAPIEKTISKAKGQPREPQVCTLPPSRDELTKNQVSLWCLVKGFYPSDIAVEWESNGQPENNYKTTPPVLDSDGSFFLYSKLTVDKSRWQQGNVFSCSVMHEALHNRYTQKSLSLSP
light: DIVMTQSPLSLPVTPGEPASISCRSSQSLVHSNRNTYLHWYQQKPGQAPRLLIYKVSNRFSGVPDRFSGSGSGTDFTLKISRVEAEDVGVYYCGQGTQVPYTFGQGTKLEIKRTVAAPSVFIFPPSDEQLKSGTASVVCLLNNFYPREAKVQWKVDNALQSGNSQESVTEQDSKDSTYSLSSTLTLSKADYEKHKVYACEVTHQGLSSPVTKSFNRGEC
notes: one-arm antibody
B2: CE115HA000 S62P (antibody, human IgG1, kappa, L234A L235A, N297A, name in Kabat numbering)
heavy: B1 heavy with E65P
chain: B1 chain
light: B1 light
notes: one-arm antibody
B3: CE115HA000 T28D (antibody, human IgG1, kappa, L234A L235A, N297A, name in Kabat numbering)
heavy: B1 heavy with T28D, E65S
chain: B1 chain
light: B1 light
notes: one-arm antibody
B4: CE115HA000 T57K (antibody, human IgG1, kappa, L234A L235A, N297A, name in Kabat numbering)
heavy: B1 heavy with T60K, E65S
chain: B1 chain
light: B1 light
notes: one-arm antibody
B5: CE115HA000 T57A (antibody, human IgG1, kappa, L234A L235A, N297A, name in Kabat numbering)
heavy: B1 heavy with T60A, E65S
chain: B1 chain
light: B1 light
notes: one-arm antibody
B6: CE115HA000 Y55G (antibody, human IgG1, kappa, L234A L235A, N297A, name in Kabat numbering)
heavy: B1 heavy with Y58G, E65S
chain: B1 chain
light: B1 light
notes: one-arm antibody
B7: CE115HA000 S74A (antibody, human IgG1, kappa, L234A L235A, N297A, name in Kabat numbering)
heavy: B1 heavy with E65S, S77A
chain: B1 chain
light: B1 light
notes: one-arm antibody
B8: CE115HA000 Y58D (antibody, human IgG1, kappa, L234A L235A, N297A, name in Kabat numbering)
heavy: B1 heavy with Y61D, E65S
chain: B1 chain
light: B1 light
notes: one-arm antibody
B9: CE115HA000 V100cP (antibody, human IgG1, kappa, L234A L235A, N297A, name in Kabat numbering)
heavy: B1 heavy with E65S, V109P
chain: B1 chain
light: B1 light
notes: one-arm antibody
B10: CE115HA000 V100cE (antibody, human IgG1, kappa, L234A L235A, N297A, name in Kabat numbering)
heavy: B1 heavy with E65S, V109E
chain: B1 chain
light: B1 light
notes: one-arm antibody
B11: CE115HA000 V100cD (antibody, human IgG1, kappa, L234A L235A, N297A, name in Kabat numbering)
heavy: B1 heavy with E65S, V109D
chain: B1 chain
light: B1 light
notes: one-arm antibody
B12: CE115HA000 T57I (antibody, human IgG1, kappa, L234A L235A, N297A, name in Kabat numbering)
heavy: B1 heavy with T60I, E65S
chain: B1 chain
light: B1 light
notes: one-arm antibody
B13: CE115HA000 S74P (antibody, human IgG1, kappa, L234A L235A, N297A, name in Kabat numbering)
heavy: B1 heavy with E65S, S77P
chain: B1 chain
light: B1 light
notes: one-arm antibody
B14: CE115HA000 V95E (antibody, human IgG1, kappa, L234A L235A, N297A, name in Kabat numbering)
heavy: B1 heavy with E65S, V101E
chain: B1 chain
light: B1 light
notes: one-arm antibody
B15: CE115HA000 V95S (antibody, human IgG1, kappa, L234A L235A, N297A, name in Kabat numbering)
heavy: B1 heavy with E65S, V101S
chain: B1 chain
light: B1 light
notes: one-arm antibody
B16: CE115HA000 Y55S (antibody, human IgG1, kappa, L234A L235A, N297A, name in Kabat numbering)
heavy: B1 heavy with Y58S, E65S
chain: B1 chain
light: B1 light
notes: one-arm antibody
B17: CE115HA000 V95G (antibody, human IgG1, kappa, L234A L235A, N297A, name in Kabat numbering)
heavy: B1 heavy with E65S, V101G
chain: B1 chain
light: B1 light
notes: one-arm antibody
B18: CE115HA000 S62K (antibody, human IgG1, kappa, L234A L235A, N297A, name in Kabat numbering)
heavy: B1 heavy with E65K
chain: B1 chain
light: B1 light
notes: one-arm antibody
B19: CE115HA000 W33H (antibody, human IgG1, kappa, L234A L235A, N297A, name in Kabat numbering)
heavy: B1 heavy with W33H, E65S
chain: B1 chain
light: B1 light
notes: one-arm antibody
B20: CE115HA000 V95K (antibody, human IgG1, kappa, L234A L235A, N297A, name in Kabat numbering)
heavy: B1 heavy with E65S, V101K
chain: B1 chain
light: B1 light
notes: one-arm antibody
B21: CE115HA000 W33Y (antibody, human IgG1, kappa, L234A L235A, N297A, name in Kabat numbering)
heavy: B1 heavy with W33Y, E65S
chain: B1 chain
light: B1 light
notes: one-arm antibody
B22: CE115HA000 W33F (antibody, human IgG1, kappa, L234A L235A, N297A, name in Kabat numbering)
heavy: B1 heavy with W33F, E65S
chain: B1 chain
light: B1 light
notes: one-arm antibody
B23: CE115HA000 W33D (antibody, human IgG1, kappa, L234A L235A, N297A, name in Kabat numbering)
heavy: B1 heavy with W33D, E65S
chain: B1 chain
light: B1 light
notes: one-arm antibody
B24: CE115HA000 S77T (antibody, human IgG1, kappa, L234A L235A, N297A, name in Kabat numbering)
heavy: B1 heavy with E65S, S80T
chain: B1 chain
light: B1 light
notes: one-arm antibody
B25: CE115HA000 W33A (antibody, human IgG1, kappa, L234A L235A, N297A, name in Kabat numbering)
heavy: B1 heavy with W33A, E65S
chain: B1 chain
light: B1 light
notes: one-arm antibody
B26: CE115HA000 V95A (antibody, human IgG1, kappa, L234A L235A, N297A, name in Kabat numbering)
heavy: B1 heavy with E65S, V101A
chain: B1 chain
light: B1 light
notes: one-arm antibody
B27: CE115HA000 Y58K (antibody, human IgG1, kappa, L234A L235A, N297A, name in Kabat numbering)
heavy: B1 heavy with Y61K, E65S
chain: B1 chain
light: B1 light
notes: one-arm antibody
B28: CE115HA000 T28S (antibody, human IgG1, kappa, L234A L235A, N297A, name in Kabat numbering)
heavy: B1 heavy with T28S, E65S
chain: B1 chain
light: B1 light
notes: one-arm antibody
B29: CE115HA000 Y58A (antibody, human IgG1, kappa, L234A L235A, N297A, name in Kabat numbering)
heavy: B1 heavy with Y61A, E65S
chain: B1 chain
light: B1 light
notes: one-arm antibody
B30: CE115HA000 V95D (antibody, human IgG1, kappa, L234A L235A, N297A, name in Kabat numbering)
heavy: B1 heavy with E65S, V101D
chain: B1 chain
light: B1 light
notes: one-arm antibody
B31: CE115HA000 T57N (antibody, human IgG1, kappa, L234A L235A, N297A, name in Kabat numbering)
heavy: B1 heavy with T60N, E65S
chain: B1 chain
light: B1 light
notes: one-arm antibody
B32: CE115HA000 Y55D (antibody, human IgG1, kappa, L234A L235A, N297A, name in Kabat numbering)
heavy: B1 heavy with Y58D, E65S
chain: B1 chain
light: B1 light
notes: one-arm antibody
B33: CE115HA000 V11L (antibody, human IgG1, kappa, L234A L235A, N297A, name in Kabat numbering)
heavy: B1 heavy with V11L, E65S
chain: B1 chain
light: B1 light
notes: one-arm antibody

Each binder was assayed against T1, CD3 epsilon homodimer protein (UniProt P07766 23-126) (assay: SPR, CD3 epsilon homodimer on chip, one-arm antibody as analyte;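 note: surface plasmon resonance at 25 °C with CD3 epsilon homodimer amine-coupled to a CM4 sensor chip, antibody injected as analyte, HBS-EP+ as running buffer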).
T1 construct: also called CD3 (CD3 epsilon)
T1 sequence (P07766 23-126): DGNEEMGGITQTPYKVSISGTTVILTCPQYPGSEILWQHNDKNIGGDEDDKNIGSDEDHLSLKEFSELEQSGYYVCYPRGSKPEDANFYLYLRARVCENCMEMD

Compared with B1, B2 is lower in “KD ratio (KD of CE115HA000/KD of altered form)” value (“KD ratio” for short): 0.82 for the first, 0.77 for the second.

First: B3
Second: B4
The “KD ratio” value of the first is lower: 0.93 for the first, 1.22 for the second.

Going from B5 to B6, the “KD ratio” value rises from 0.87 to 0.99.

Compared with B7, B8 is higher in “KD ratio” value: 0.77 for the first, 4.81 for the second.

Going from B9 to B10, the “KD ratio” value rises from 0.97 to 1.31.

Compared with B11, B12 is lower in “KD ratio” value: 1.64 for the first, 0.81 for the second.

Going from B13 to B14, the “KD ratio” value rises from 0.7 to 50.5.

Going from B15 to B16, the “KD ratio” value rises from 4.61 to 5.65.

Compared with B17, B18 is lower in “KD ratio” value: 78300 for the first, 0.99 for the second.

First: B19
Second: B20
The “KD ratio” value of the first is higher: 4.96 for the first, 1.15 for the second.

Going from B21 to B22, the “KD ratio” value falls from 0.69 to 0.66.

Going from B23 to B24, the “KD ratio” value falls from 1690 to 0.83.

Going from B25 to B26, the “KD ratio” value falls from 30 to 3.15.

Compared with B27, B28 is higher in “KD ratio” value: 0.66 for the first, 0.79 for the second.

First: B29
Second: B30
The “KD ratio” value of the first is lower: 1.06 for the first, 108 for the second.

Compared with B31, B32 is lower in “KD ratio” value: 0.9 for the first, 0.89 for the second.

In the case of B33, the “KD ratio” value is reported as 0.83.
